{"source": "patent US20250092148A1", "about": "(Kyowa Kirin, published 2025)", "test_in_all_cases": "flow cytometry, Fab 0.25 µg/mL on HEK-293T cells expressing the mutant", "key": {"human CD116 N156A": {"target": "T1, human CD116 N156A (human, UniProt P15509 23-400)", "T1 construct": "whole, on cells", "T1 sequence (looked up)": "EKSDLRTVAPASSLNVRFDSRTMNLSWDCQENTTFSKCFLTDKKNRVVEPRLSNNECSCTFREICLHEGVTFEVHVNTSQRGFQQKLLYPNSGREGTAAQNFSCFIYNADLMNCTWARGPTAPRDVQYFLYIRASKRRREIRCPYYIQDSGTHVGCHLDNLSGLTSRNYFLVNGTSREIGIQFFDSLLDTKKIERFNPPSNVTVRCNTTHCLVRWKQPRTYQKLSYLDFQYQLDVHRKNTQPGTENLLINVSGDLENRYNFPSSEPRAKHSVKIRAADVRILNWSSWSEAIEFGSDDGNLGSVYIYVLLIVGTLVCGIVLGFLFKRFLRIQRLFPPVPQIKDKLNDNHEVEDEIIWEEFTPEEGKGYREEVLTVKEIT"}, "human CD116 R302A": {"target": "T2, human CD116 R302A (human, UniProt P15509 23-400)", "T2 construct": "whole, on cells", "T2 sequence (looked up)": "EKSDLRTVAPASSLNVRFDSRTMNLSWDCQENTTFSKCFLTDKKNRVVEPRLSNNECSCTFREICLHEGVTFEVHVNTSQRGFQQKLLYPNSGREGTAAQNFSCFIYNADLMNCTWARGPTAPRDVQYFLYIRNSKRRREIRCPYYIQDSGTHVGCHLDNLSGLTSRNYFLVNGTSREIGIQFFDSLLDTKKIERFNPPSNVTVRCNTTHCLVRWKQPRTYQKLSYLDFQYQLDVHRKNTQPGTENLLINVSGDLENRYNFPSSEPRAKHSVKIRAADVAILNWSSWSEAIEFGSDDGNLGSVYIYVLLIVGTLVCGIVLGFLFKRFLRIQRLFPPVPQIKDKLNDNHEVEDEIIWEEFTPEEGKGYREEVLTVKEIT"}, "human CD116 L249A": {"target": "T3, human CD116 L249A (human, UniProt P15509 23-400)", "T3 construct": "whole, on cells", "T3 sequence (looked up)": "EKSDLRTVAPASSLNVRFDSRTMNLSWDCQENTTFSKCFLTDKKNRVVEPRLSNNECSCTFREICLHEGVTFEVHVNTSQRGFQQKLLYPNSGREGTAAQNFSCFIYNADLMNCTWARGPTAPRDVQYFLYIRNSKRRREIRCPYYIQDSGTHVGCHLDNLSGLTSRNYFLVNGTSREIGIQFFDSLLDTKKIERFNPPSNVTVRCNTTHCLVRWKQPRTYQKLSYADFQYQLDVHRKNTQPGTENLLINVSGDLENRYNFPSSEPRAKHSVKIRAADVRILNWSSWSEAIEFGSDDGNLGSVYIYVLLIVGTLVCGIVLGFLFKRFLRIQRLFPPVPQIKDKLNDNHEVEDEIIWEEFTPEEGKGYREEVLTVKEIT"}, "human CD116 T187A": {"target": "T4, human CD116 T187A (human, UniProt P15509 23-400)", "T4 construct": "whole, on cells", "T4 sequence (looked up)": "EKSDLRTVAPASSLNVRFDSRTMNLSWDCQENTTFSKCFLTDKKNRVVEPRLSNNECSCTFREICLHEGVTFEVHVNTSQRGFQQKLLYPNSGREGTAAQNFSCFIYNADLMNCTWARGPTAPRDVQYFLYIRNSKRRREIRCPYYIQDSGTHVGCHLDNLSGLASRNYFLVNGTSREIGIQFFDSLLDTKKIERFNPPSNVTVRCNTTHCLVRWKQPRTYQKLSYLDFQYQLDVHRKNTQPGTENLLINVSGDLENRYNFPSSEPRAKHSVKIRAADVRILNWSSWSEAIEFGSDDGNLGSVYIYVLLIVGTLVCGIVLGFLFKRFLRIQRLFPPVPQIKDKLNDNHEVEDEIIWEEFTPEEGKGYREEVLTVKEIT"}, "human CD116 D300A": {"target": "T5, human CD116 D300A (human, UniProt P15509 23-400)", "T5 construct": "whole, on cells", "T5 sequence (looked up)": "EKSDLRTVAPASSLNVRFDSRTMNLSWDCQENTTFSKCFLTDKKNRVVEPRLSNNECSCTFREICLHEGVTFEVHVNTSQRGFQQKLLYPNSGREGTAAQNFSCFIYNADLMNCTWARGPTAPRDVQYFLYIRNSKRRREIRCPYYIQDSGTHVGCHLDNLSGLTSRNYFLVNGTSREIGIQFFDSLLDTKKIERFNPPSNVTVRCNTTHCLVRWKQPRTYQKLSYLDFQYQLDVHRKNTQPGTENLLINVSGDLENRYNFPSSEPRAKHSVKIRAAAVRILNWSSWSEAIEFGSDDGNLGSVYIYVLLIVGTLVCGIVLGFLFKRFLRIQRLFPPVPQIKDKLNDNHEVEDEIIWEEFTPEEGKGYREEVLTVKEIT"}, "human CD116 Y248A": {"target": "T6, human CD116 Y248A (human, UniProt P15509 23-400)", "T6 construct": "whole, on cells", "T6 sequence (looked up)": "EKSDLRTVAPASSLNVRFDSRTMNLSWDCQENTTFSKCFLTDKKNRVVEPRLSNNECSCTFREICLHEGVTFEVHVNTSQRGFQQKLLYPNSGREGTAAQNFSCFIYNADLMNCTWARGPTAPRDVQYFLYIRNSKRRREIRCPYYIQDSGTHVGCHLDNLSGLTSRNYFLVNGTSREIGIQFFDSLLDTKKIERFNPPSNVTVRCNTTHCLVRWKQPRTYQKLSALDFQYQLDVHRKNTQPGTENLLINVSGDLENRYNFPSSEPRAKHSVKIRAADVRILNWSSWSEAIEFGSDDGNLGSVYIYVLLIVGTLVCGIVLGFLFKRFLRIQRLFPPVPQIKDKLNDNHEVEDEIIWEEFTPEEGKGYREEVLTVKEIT"}}, "data": [{"binder": "anti-CD116 antibody 116-408, Fab (Fab, V domains shown) VH: EVQLVQSGAEVKKPGASVKVSCKVSGYTLTDLSMHWVRQAPGKGLEWMGGFDPEDGERIYAQKFQGRVTMTEDTSTDTAYMELSSLRSEDTAVYYCATGLFYYYYGMDVWGQGTMVTVSS VL: not shown", "values": [{"measurement": "Binding Reactivity (% WT)", "setting": "human CD116 N156A", "value": 5.8, "unit": "% WT"}, {"measurement": "Binding Reactivity (% WT)", "setting": "human CD116 R302A", "value": 93.8, "unit": "% WT"}, {"measurement": "Binding Reactivity (% WT)", "setting": "human CD116 L249A", "value": 92.4, "unit": "% WT"}, {"measurement": "Binding Reactivity (% WT)", "setting": "human CD116 T187A", "value": 16.2, "unit": "% WT"}, {"measurement": "Binding Reactivity (% WT)", "setting": "human CD116 D300A", "value": 84.8, "unit": "% WT"}, {"measurement": "Binding Reactivity (% WT)", "setting": "human CD116 Y248A", "value": 78.2, "unit": "% WT"}]}]}
